Assay results reported in US20230203185A1 (ECO ANIMAL HEALTH, published 2023).
Positions count from the first letter of the chain named.

T1: porcine CD163 with deletion of SRCR domain 5 on porcine alveolar macrophages (porcine, UniProt Q2VL90 47-1115)
T1 construct: also called PAM CD163-d5; pPAMΔ5 domain
T1 sequence: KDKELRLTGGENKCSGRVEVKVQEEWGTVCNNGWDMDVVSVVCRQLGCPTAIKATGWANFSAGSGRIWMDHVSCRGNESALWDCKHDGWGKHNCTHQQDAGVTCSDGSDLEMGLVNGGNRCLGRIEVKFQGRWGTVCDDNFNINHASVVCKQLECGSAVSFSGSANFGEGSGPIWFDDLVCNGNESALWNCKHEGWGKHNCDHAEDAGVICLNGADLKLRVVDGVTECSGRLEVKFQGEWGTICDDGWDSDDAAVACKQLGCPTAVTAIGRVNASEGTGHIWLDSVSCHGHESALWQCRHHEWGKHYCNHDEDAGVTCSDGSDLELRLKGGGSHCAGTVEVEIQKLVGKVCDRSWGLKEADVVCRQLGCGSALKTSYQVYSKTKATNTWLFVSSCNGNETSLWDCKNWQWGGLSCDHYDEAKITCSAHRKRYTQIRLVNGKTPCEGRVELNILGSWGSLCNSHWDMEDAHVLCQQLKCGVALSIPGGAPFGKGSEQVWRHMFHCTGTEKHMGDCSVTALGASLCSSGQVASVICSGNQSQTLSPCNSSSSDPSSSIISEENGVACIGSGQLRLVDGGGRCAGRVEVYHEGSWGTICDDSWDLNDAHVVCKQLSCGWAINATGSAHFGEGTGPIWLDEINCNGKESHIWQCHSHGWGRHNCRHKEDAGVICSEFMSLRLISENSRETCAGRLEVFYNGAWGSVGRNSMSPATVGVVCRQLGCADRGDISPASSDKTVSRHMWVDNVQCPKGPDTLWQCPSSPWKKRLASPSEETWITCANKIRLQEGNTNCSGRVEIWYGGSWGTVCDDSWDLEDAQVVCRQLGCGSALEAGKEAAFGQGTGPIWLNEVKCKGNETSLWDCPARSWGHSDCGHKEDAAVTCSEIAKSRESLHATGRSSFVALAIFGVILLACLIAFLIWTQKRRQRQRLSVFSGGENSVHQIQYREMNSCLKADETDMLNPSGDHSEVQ

B1: VHH 018 (3E01) (VHH)
VHH: QVQLQESGGGLVQVGGSLRLSCVASGRAPSRYVMGWFRQAPGQEREFVAGIAWSGRAPYADSVKGRSTISRDNAKNTVYLQMNSLKPEDTGVYYCAGGEGAIRWTTLDAYDYWGQGTQVTVSS
notes: Llama single domain antibody; also called 49(#18); VHCDR3 49(#18); not shown: tags: c-myc tag in periplasmic extract (ELISA, FACS); FLAG and His tags in purified VHH (SPR, infection assays)
B2: VHH 020 (3H11) (VHH)
VHH: B1 VHH with A28T, S67F, T68V, N73S, P87S, R103L, L107P, D108G, D111N
notes: Llama single domain antibody; also called 48(#20); VHCDR3 48(#20); not shown: tags: c-myc tag in periplasmic extract (ELISA, FACS); FLAG and His tags in purified VHH (SPR, infection assays)
B3: VHH 019 (3E11) (VHH)
VHH: B1 VHH with G16S, A24T, A28T, G50A, A52S, S67F, R103K
notes: Llama single domain antibody; also called 47(#19); VHCDR3 47(#19); not shown: tags: c-myc tag in periplasmic extract (ELISA, FACS); FLAG and His tags in purified VHH (SPR, infection assays)
B4: VHH 023 (4E10) (VHH)
VHH: QVQLVESGGGLVQAGGSLRLSCVASSRTSSTYAMGWFRQGPGKERDFVAIISFGGTFYADSVKGRFTISRDNAKNTVYLQMNSLKPEDTAVYYCAAGRTLSKRADSYASWGQGTQVTVSS
notes: Llama single domain antibody; also called 70(#23); VHCDR3 70(#23); not shown: tags: c-myc tag in periplasmic extract (ELISA, FACS); FLAG and His tags in purified VHH (SPR, infection assays)
B5: VHH 015 (2G01) (VHH)
VHH: QVQLVESGGGLVQAGDTLRLSCTASGRTFSSYSMGWFRQAPGKEREFVAAITWNGYITNYADSVKGRFTISRDNTKNTVFLQMNSLKPEETAVYYCAATTFSTTSPISRTYNYWGPGTQVTVSS
notes: Llama single domain antibody; also called 150(#15); VHCDR3 150(#15); not shown: tags: c-myc tag in periplasmic extract (ELISA, FACS); FLAG and His tags in purified VHH (SPR, infection assays)
B6: VHH 011 (2B06) (VHH)
VHH: EVQLVESGGGLVQAGGSLRLSCAASGRTLSVYGTGWFRQAPGKEREFVAGISGTTGSTLYADSVKGRFTISRDNAKNTVYLQMNSLKSEDTALYYCAAGGRVYITTSSWAYWGQGTQVTVSS
notes: Llama single domain antibody; also called 57(#11); VHCDR3 57(#11); not shown: tags: c-myc tag in periplasmic extract (ELISA, FACS); FLAG and His tags in purified VHH (SPR, infection assays)
B7: VHH 001 (1B02) (VHH)
VHH: EVQLVESGGGLVQAGGSLSLSCAASGGTLAMYAMSWFRQAPGKDRKFVAAINTSGRYSRYADSVKGRFTISRDNAKNTATLQMNSLEPEDTAVYYCAATDKGNWALAMSYDYWGQGTQVTVSS
notes: Llama single domain antibody; also called 144(#1); VHCDR3 144(#1); not shown: tags: c-myc tag in periplasmic extract (ELISA, FACS); FLAG and His tags in purified VHH (SPR, infection assays)
B8: VHH 017 (3D03) (VHH)
VHH: QLQLVESGGGLVQPGGSLRLSCAASGFTLDDYTIGWFRQAPGKEREGVSCINSITSNTYYADSVKGRFTISRDNAKNTVYLQMNSLTAEDTAIYYCAADSGLFSGSSCLKYRAMRFGSWGQGTQVTVSS
notes: Llama single domain antibody; also called 29(#17); VHCDR3 29(#17); not shown: tags: c-myc tag in periplasmic extract (ELISA, FACS); FLAG and His tags in purified VHH (SPR, infection assays)
B9: VHH 002 (1B04) (VHH)
VHH: QVQLVESGGGLVQAGGSLRLSCAASGLTFVTYSMGWFRQAPGKEREFVAAHRWSGSAYYAEHADSVEGRFTISRDYAKNMLYLQMNSLKHEDTAVYYCAAGVGSAAQYRYWGRGTQVTVSS
notes: Llama single domain antibody; also called 76(#2); VHCDR3 76(#2); not shown: tags: c-myc tag in periplasmic extract (ELISA, FACS); FLAG and His tags in purified VHH (SPR, infection assays)
B10: VHH 016 (2H11) (VHH)
VHH: EVQLVESGGGLVQAGGSLRLSCAASGRTFAPGSMGWFRQAPGKEREFVAAHRWSGSAYYADYADSVEGRFTISRDYAKNMVYLQMNSLKPGDTAVYYCAAGVGSAAQYTYWGRGTQVTVSS
notes: Llama single domain antibody; also called 77(#16); VHCDR3 77(#16); not shown: tags: c-myc tag in periplasmic extract (ELISA, FACS); FLAG and His tags in purified VHH (SPR, infection assays)
B11: VHH 008 (1H01) (VHH)
VHH: B9 VHH with L27R, V30G, A105E
notes: Llama single domain antibody; also called 78(#8); VHCDR3 78(#8); not shown: tags: c-myc tag in periplasmic extract (ELISA, FACS); FLAG and His tags in purified VHH (SPR, infection assays)
B12: VHH 012 (2C07) (VHH)
VHH: QLQLVESGGGLVQAGGSLRLSCVASGRTFSRYAMGWFRQAPGKEREFVAAIAWSTGSTYYANSVKGRFAISGDNAKNTVYLQMNSLKPEDTAVYYCAAETRYCSGFGCLDPRTYGSWGQGTQVTVSS
notes: Llama single domain antibody; also called 41(#12); VHCDR3 41(#12); not shown: tags: c-myc tag in periplasmic extract (ELISA, FACS); FLAG and His tags in purified VHH (SPR, infection assays)

What was measured:
[1] = biological target: T1, porcine CD163 with deletion of SRCR …; experiment: flow cytometry on PAM with deletion of SRCR5
Experimental: Periplasmic Extract (P.E) from the selected clones were incubated with anti-c-myc antibody (Roche; Cat. nr. 11667203001), specific to the c-myc tag present in the soluble VHH, for 30 minutes with agitation at room temperature (RT). The mix (P.E + anti-c-myc antibody) was added to the pPAM or pPAMΔ5 domain (cells with deletion of SRCR domain 5) and incubated for 60 min at 4° C. with gentle shaking.
Cells were washed 3x with 150 µl/well of FACS Buffer and incubated with 50 µl/well of the secondary antibody GAM-APC for 30 min at 4° C. and protected from the light, with shaking.

pCD163-SRCR4-7-huFc [2] = biological target: T2, pCD163-SRCR4-7-huFc (porcine, UniProt Q2VL90 372-818, limits assumed); experiment: ELISA, periplasmic extract on coated antigen
T2 construct: also called pCD163:SRCR4-7-Fc; pCD163-SRCR4-7-Fc; not shown: human Fc (huFc)
T2 sequence (Q2VL90 372-818 limits assumed): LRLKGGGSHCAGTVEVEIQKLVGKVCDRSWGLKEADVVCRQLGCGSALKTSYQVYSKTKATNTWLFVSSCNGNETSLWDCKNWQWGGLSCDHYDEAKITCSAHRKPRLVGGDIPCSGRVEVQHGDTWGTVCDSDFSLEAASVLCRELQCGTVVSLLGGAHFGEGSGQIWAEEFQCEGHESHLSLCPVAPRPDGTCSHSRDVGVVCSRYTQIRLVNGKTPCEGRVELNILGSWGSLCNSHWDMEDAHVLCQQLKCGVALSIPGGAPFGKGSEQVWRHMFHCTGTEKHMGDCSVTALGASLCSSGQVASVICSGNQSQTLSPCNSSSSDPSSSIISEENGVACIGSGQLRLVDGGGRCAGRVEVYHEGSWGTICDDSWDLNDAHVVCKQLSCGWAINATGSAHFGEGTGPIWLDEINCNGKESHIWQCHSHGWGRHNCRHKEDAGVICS

pCD163-SRCR4-7-huFc [3] = biological target: T2, pCD163-SRCR4-7-huFc; experiment: SPR (Biacore 3000), antigen amine-coupled on CM5, VHH injected, pH 7.4
Experimental: To assess the affinity of selected purified clones to pCD163, pCD163-SRCR1-9-huFc or pCD163-SRCR4-7-huFc proteins were coated by amine coupling on a CM5 sensor ship (GE Healthcare). Surface plasmon resonance (SPR) (Biacore 3000, GE Healthcare) was used to determine the binding kinetics of selected single domain antibodies at pH7.4. Approximately 2000 RU of pCD163-SRCR1-9-huFc or pCD163-SRCR4-7-huFc, proteins at 20 or 30 µg/ml in Acetate buffer pH 5.0 or pH 5.5 were immobilized onto a CM5 chip using the standard amine coupling procedure.
1x HBS-EP pH 7.4, were utilized as a running buffer during binding kinetic measurements. Purified VHH were injected at 3-fold dilution (300 nM; 100 nM; 33 nM; 11 nM; 3.7 nM; 1.2 nM; 0.4 nM; 0 nM), for 120 s, at a flow rate of 30 µl/min. RU levels were restored to base levels after regeneration with 10 µl of 10 mM NaOH / 1 M NaCl and 10 µl of 10 mM Glycine pH 1.5 between samples. Fitting 1:1 binding with mass transfer was applied to the set sample curves using the simultaneous fitting option of the BIAevaluation software to calculate the kinetic constants of the antibody-antigen interactions including association rate (ka), dissociation rate (kd) and affinity (KD). Curves were removed from the fitting after visual examination of the residuals and considering the value of Chi2: a minimum of 4 curves were considered for the simultaneous fitting.

[4] = biological target: control human IgG (human); experiment: ELISA, periplasmic extract on control IgG

| Binder | binding result [1] | O.D. 450 (pCD163-SRCR4-7-huFc [2]) [O.D. 450] | Kd (pCD163-SRCR4-7-huFc [3]) [nM] | koff (pCD163-SRCR4-7-huFc [3]) [s⁻¹] | kon (pCD163-SRCR4-7-huFc [3]) [M⁻¹ s⁻¹] | O.D. 450 [4] [O.D. 450] |
| --- | --- | --- | --- | --- | --- | --- |
| B1 | no binding | 0.938 | 42 | 0.0121 | 288000 | 0.057 |
| B2 | no binding | 3.36 | 18.2 | 0.00843 | 462000 | 0.056 |
| B3 | no binding | 2.43 | 21.1 | 0.0103 | 487000 | 0.054 |
| B4 | no binding | 4.1 | 1.52 | 0.00755 | 4.96e+06 | 0.054 |
| B5 | no binding | 4.37 | 8.01 | 0.00442 | 551000 | 0.058 |
| B6 | no binding | 0.288 | 34.5 | 0.0151 | 437000 | 0.059 |
| B7 | no binding | 0.416 | 9.26 | 0.0227 | 2.46e+06 | 0.059 |
| B8 | no binding | 0.116 | 22.6 | 0.00345 | 153000 | 0.053 |
| B9 | no binding | 2.39 | 19 | 0.0149 | 787000 | 0.057 |
| B10 | no binding | 4.15 | 30 | 0.00674 | 224000 | 0.06 |
| B11 | no binding | 2.65 | 34.7 | 0.00542 | 156000 | 0.06 |
| B12 | no binding | 3.14 | 1.51 | 0.00426 | 2.83e+06 | 0.057 |
